The target in the test is human FAS polypeptide (human) (UniProt P25445). Put plainly: cell-based or functional assay.
UniProt P25445, sequence (P25445 26-335 limits assumed): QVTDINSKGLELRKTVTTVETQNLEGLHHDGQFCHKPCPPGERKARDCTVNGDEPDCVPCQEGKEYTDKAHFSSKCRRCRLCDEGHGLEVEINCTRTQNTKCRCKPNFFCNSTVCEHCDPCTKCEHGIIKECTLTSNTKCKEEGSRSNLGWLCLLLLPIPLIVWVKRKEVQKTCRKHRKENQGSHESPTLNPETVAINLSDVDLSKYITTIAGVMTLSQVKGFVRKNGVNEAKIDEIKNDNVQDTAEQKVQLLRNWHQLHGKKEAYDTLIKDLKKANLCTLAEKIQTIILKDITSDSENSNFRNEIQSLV

In the case of HFE7A IgG (antibody), the apoptosis (DNA fragmentation), U87-MG cells, 24 hours, cross-linked antibody (fold of cross-linked ApomAb) came out at 2.

The values above are taken from patent US20120184718A1.
